According to paper PMC10825162 (Nature Communications, 2024):

Biological target: SARS-CoV-2 spike (reference strain) expressed on CHO-K1 cells (SARS-CoV-2 reference strain (Wuhan-Hu-1), UniProt P0DTC2)
Assay: flow cytometry on cells
Conditions: one partner purified

B1: BA7208 (antibody, V domains shown)
VH: EVQLVQSGAEVKKPGESLKISCKGSGYSFTSYYWIGWVRQMPGKGLEWMGIVYPDDSDTRYSPSFQGQVTISADKSISTAYLQWSSLKASDTAMYYCVRHPGGGDWYFDLWGRGTLVTVSS
VL: DIQMTQSPSTLSASVGDRVTITCRASQSISSWLAWYQQKPGKAPKLLIYKASSLESGVPSRFSGSGSGTEFTLTITSLQPDDFATYYCQQYDSFSWTFGQGTKLEIK
  binding result: binds
